# According to the supplement of paper PMC12764529:
# ± gives the half width of the 95% confidence interval.
# Columns and labels:
# [1] = folding stability dG unfold from trypsin proteolysis; higher = more stable
# Procedure, shortened: (§1)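 Mini-proteins designed to be under 80 residues and free of cysteine were carried in a PA-tagged cDNA display construct and digested with trypsin and with chymotrypsin. Each protease was applied at 11 threefold-diluted concentrations, alongside a no-protease condition, before sequencing. K50 came from Bayesian fitting of the sequencing counts, and unfolding free energy was obtained by comparing it with a sequence-predicted unfolded-state K50 and a shared folded-state K50, for each protease separately or for both together. Designs were retained only if their AlphaFold2 dimer inter-PAE exceeded 15.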
# [2] = folding stability dG unfold from chymotrypsin proteolysis; higher = more stable
# Procedure, shortened: as §1
# [3] = folding stability dG unfold (combined trypsin and chymotrypsin); higher = more stable
# Procedure, shortened: as §1
Sequence,folding stability dG unfold [1] [kcal/mol],folding stability dG unfold [2] [kcal/mol],folding stability dG unfold [3] [kcal/mol]
SAGGSAGGSMIVVPESVSPEEAEATARQVAQELGISPDTPLEVEIKEVKTGENSVYEIRVTLRSAGGSAGGS [r12_252_JUSTAS],0.097 ± 0.056,0.19 ± 0.13,0.199 ± 0.092
SAGGSAGGSMKIKVEVEMEKVKDPKKKGEYIYKMKIKKVEIELSEEEKEKLKELAEKLGIEVESAGGSAGGS [r12_249_TrROS_Hall],1.42 ± 0.066,2.35 ± 0.074,2.08 ± 0.17
SAGGSAGGSMKIPEDETYEEKLPDGRKVTYTWEPESGLLKTTTTDPNNDTPTTSTYKVPPSSLLSAGGSAGG [r6_407_JUSTAS],0.0466 ± 0.2,0.49 ± 0.31,0.262 ± 0.25
SAGGSAGGSMKIPSDYTLTPIETKDNGASTVTLEKVTYPGPSLLATFLTPPDGTVTLLEVKPVSAGGSAGGS [r20_103_JUSTAS],0.525 ± 0.046,1.24 ± 0.072,0.997 ± 0.065
SAGGSAGGSMKITKSPSGYYTVTINLPNGTTVEIKVSTSDPNATDEQIIEIAKPKAEEILKKSSAGGSAGGS [r12_642_JUSTAS],1.16 ± 0.054,2.87 ± 0.12,2.53 ± 0.14
SAGGSAGGSMKIYEVPPEVAENMSLEEIIESLVLPGYPAKAEAFEDEGPGYVLVDLFLPPELGSAGGSAGGS [r12_716_TrMRF],-0.666 ± 0.12,1.02 ± 0.029,0.842 ± 0.13
SAGGSAGGSMKKIKVKIKITDKDGNKKEVEAEIFFDEETGKLYIKLPNGEVKEISLEDIEIVESAGGSAGGS [r12_256_TrROS_Hall],2.46 ± 0.08,4.01 ± 0.069,3.63 ± 0.09
SAGGSAGGSMKLEVEAELEVPLPNGKPKRFKVKFRVEPGESGVKVEVLEVDDPLVVEAIKKLFSAGGSAGGS [r12_743_TrMRF],2.2 ± 0.034,3 ± 0.072,2.65 ± 0.096
SAGGSAGGSMKLTLESASPDPNKVTYTIKFPGGETLTEELPEEEIEKRSKELGWNIKLFGPTKSAGGSAGGS [r12_676_JUSTAS],-0.0326 ± 0.29,0.098 ± 0.42,-0.0928 ± 0.28
SAGGSAGGSMKNIKEIKVERRKLPNGGEYYVVTITYPDGKEIIIEMSPEETLEEALEKAKELSSAGGSAGGS [r12_1047_JUSTAS],2.87 ± 0.16,3.01 ± 0.21,2.92 ± 0.13
SAGGSAGGSMKPLGQGDFEDPDGWKIKISMYPDGWFRIEIYDKNGKPKETIPVPANDLPDILKSAGGSAGGS [r12_664_TrROS],0.664 ± 0.027,1.43 ± 0.053,1.21 ± 0.064
SAGGSAGGSMKTITVTFSSEEEAKKAAEEILKKEGFDEKIKEVTLTYSKEGNVLTGTVTVKTPSAGGSAGGS [r12_7_JUSTAS],0.449 ± 0.042,1.2 ± 0.046,0.945 ± 0.089
SAGGSAGGSMKTKTIEIEIDGKKVRITIDSDGNITIEVPSEEVKEALKKLLPPGVKITKIEPVSAGGSAGGS [r12_9_TrROS_Hall],2.15 ± 0.13,1.61 ± 0.1,1.94 ± 0.21
SAGGSAGGSMKTLTLEGESEEEAIEKVKEYFKKKGINYKLLKIEISEKPNGTKIYTIDIDTKKSAGGSAGGS [r12_924_JUSTAS],1.19 ± 0.1,2.33 ± 0.1,2.04 ± 0.2
SAGGSAGGSMKVEITKVEPETGPNGRPYYRVEVKVIGEDGSPYTFTFYFEKPSDIENAKISLDSAGGSAGGS [r20_130_TrMRF],2.67 ± 0.19,3.91 ± 0.07,3.5 ± 0.21
SAGGSAGGSMKVYKLPGGYTVTVEPVDGGTLVTITLPDGSVKTKFVPPDEPVVVDPNGAKITVSAGGSAGGS [r12_281_JUSTAS],1.85 ± 0.071,2.55 ± 0.036,2.29 ± 0.077
SAGGSAGGSMKYTLLSTRKNPDGTELRLIEVSEDPEKAKEYLESQGAVEIEFKKNIMTVTFKSSAGGSAGGS [r20_222_JUSTAS],-0.216 ± 0.22,-0.321 ± 0.32,-0.214 ± 0.17
SAGGSAGGSMLTIEKPMPGTTEEEALEYAEELKEKNPNYKIEVEIEKTEEGYLTVKIKLTKKESAGGSAGGS [r12_425_JUSTAS],1.31 ± 0.12,0.879 ± 0.12,0.972 ± 0.24
SAGGSAGGSMLVEVEYEGGERRTFPLENRSVEEAVEALPEGVTRVRVTVYLGEKPVEFEVERPSAGGSAGGS [r12_767_TrMRF],0.271 ± 0.077,1.07 ± 0.067,0.799 ± 0.052
SAGGSAGGSMLVLKVEVKIEVEEREVIGPDGKIKKEKKIKIEIKIELFELPPLTEEELKKLKESAGGSAGGS [r12_1060_TrROS_Hall],2.73 ± 0.27,4.14 ± 0.21,3.6 ± 0.72
SAGGSAGGSMNPEVPYAKVTLELKLPDGTTATLTLEVPLEEIPKVIEELKKKGYEILSIKIEPSAGGSAGGS [r12_986_JUSTAS],4.17 ± 0.23,5.02 ± 0.13,5.07 ± 0.27

Sequence,folding stability dG unfold [1] [kcal/mol],folding stability dG unfold [2] [kcal/mol],folding stability dG unfold [3] [kcal/mol]
SAGGSAGGSMNVSPEELEALARERIEALLAENPDVPRDDVVLEFEGRSESPGKVITLTLRVRASAGGSAGGS [r12_707_JUSTAS],0.242 ± 0.14,-0.00174 ± 0.23,0.0895 ± 0.21
SAGGSAGGSMPFIKVKVRFIEPNGIERTFEIELPEDKNLDEAIKLAPLFAKNGLPVEIEEVEGSAGGSAGGS [r12_804_TrMRF],0.758 ± 0.089,0.0494 ± 0.44,0.466 ± 0.18
SAGGSAGGSMPLKLVELKPLEESTGENGVPTVRVELVLERPGERITVELEVSPEEIEALIKKLLSAGGSAGG [r6_379_JUSTAS],2.03 ± 0.074,1.07 ± 0.2,1.56 ± 0.19
SAGGSAGGSMPPLAPDETVTQTLPSPDGSEVLVTYTWVPGEGLVETKVTDPATGKTTSTKTPVPSAGGSAGG [r6_440_JUSTAS],0.0545 ± 0.067,-0.521 ± 0.31,-0.0833 ± 0.16
SAGGSAGGSMPTSSSSSLSSEAEVEALIEELKKKGAKEFTVDPGPGALTLTITYDDSTLTISSSAGGSAGGS [r12_846_JUSTAS],0.838 ± 0.033,1.38 ± 0.057,1.12 ± 0.11
SAGGSAGGSMPVVVEPTTIGDIEVTRVVLPDGTVVVYTKAPTTLKVTYRPLATGEEEEEVFPELSAGGSAGG [r6_555_JUSTAS],1.01 ± 0.011,0.829 ± 0.11,1.01 ± 0.056
SAGGSAGGSMRTITYEFPPGTTKEEVIEKVKELAKKEGLPIEKIESITEDPETGTYTVTVVVKSAGGSAGGS [r12_131_JUSTAS],4.2 ± 0.42,4.65 ± 0.14,4.59 ± 0.34
SAGGSAGGSMRVRFLVTEPGLGPETAALRVERRLLEEYPVRVKGVRVRTRPDGGYLVVVEVEPSAGGSAGGS [r12_781_TrMRF],0.673 ± 0.076,1.03 ± 0.1,0.94 ± 0.088
SAGGSAGGSMSTSLSLSSAPGVSVVTTAHPDSTVVTEQPPDGSRVVRVLDPAGELVAEEAVAPSAGGSAGGS [r12_471_JUSTAS],-0.623 ± 0.36,-0.302 ± 0.16,-0.33 ± 0.15
SAGGSAGGSMTFEILPDGKTKTLTLDEAKELILNEVPPDTTVVNLDTGKVISAEEFLKLLGIKVSAGGSAGG [r6_937_JUSTAS],0.998 ± 0.016,0.943 ± 0.084,0.998 ± 0.084
SAGGSAGGSMTIDGNALYEELGKDLPDEEKRKLFEEKAEEIAKKLGIPNMKVNINIKKPNEIKSAGGSAGGS [r12_666_JUSTAS],-0.213 ± 0.093,0.135 ± 0.051,0.0998 ± 0.078
SAGGSAGGSMTITKRSDGTIEVEIEISPEHPDVSPEEVKERVKKELEKKGIKTPVKITVKPVPESAGGSAGG [r6_480_JUSTAS],1.35 ± 0.044,2.27 ± 0.14,1.92 ± 0.19
SAGGSAGGSMTIVDPETGETLEIIEVKKNEDGKESFIFRISSPKPRYFIIDKDGNIRVIEKKDSAGGSAGGS [r12_205_TrROS_Hall],1.36 ± 0.022,1.23 ± 0.2,1.34 ± 0.074
SAGGSAGGSMTIVIKVKSKEDALEAAKALLAELGIEEGAEVKKIEVEEVDPENKEYYVRIEVKSAGGSAGGS [r12_999_TrROS_Hall],1.72 ± 0.13,1.7 ± 0.029,1.75 ± 0.14
SAGGSAGGSMTPVPGGYVITIETPAPGGVPLATLYVPSREEAEAAIAEIPAEDLTAVTVEPVLLSAGGSAGG [r6_705_JUSTAS],0.714 ± 0.034,0.566 ± 0.13,0.719 ± 0.081
SAGGSAGGSMVEYTFTVYDPRTGKETLFTVPSDIPFEEAKEKVEKEIRKGLPPNYTVTFTKPASAGGSAGGS [r20_213_JUSTAS],1.75 ± 0.035,1.45 ± 0.11,1.58 ± 0.089
SAGGSAGGSMVLNFEDTKPGVSPEEAAARVAAKIRAEHDVAVLGVEVETSPTGGYHITITVDPSAGGSAGGS [r12_781_JUSTAS],0.325 ± 0.059,0.272 ± 0.08,0.391 ± 0.062
SAGGSAGGSMVPGKLLVTITDPNNGLTTTLDLPLEVKTEEDIEAEVQKIKEENPGKKVSVKLLSAGGSAGGS [r12_65_JUSTAS],1.65 ± 0.057,1.687 ± 0.013,1.69 ± 0.054
SAGGSAGGSMVTPDGRLVIEIEVSEEDIEKLKEEARKKLGVKEVKVEVEEKDGKLKVRIVVEPSAGGSAGGS [r12_929_TrROS_Hall],0.743 ± 0.092,2.19 ± 0.15,1.77 ± 0.29
SAGGSAGGSMVVVRRLPDGRYLLEVRLEGESLRFEVDGEEEVERFAKALEELTGRPVEVLTVESAGGSAGGS [r12_783_TrMRF],4.56 ± 0.12,3.84 ± 0.043,4.15 ± 0.061
SAGGSAGGSMYIVNIKFYNPKTGKVLYIPIKTKKEKAEEIAKELAKKLPEIKYIKAEIKPDISSAGGSAGGS [r12_757_TrMRF],1.21 ± 0.093,1.74 ± 0.19,1.59 ± 0.19
